± gives the half width of the 95% confidence interval.
Assays:
[1] = folding stability dG unfold from chymotrypsin proteolysis; higher = more stable
Outline: (§1)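 Sequencing followed digestion of designed mini-proteins with trypsin and chymotrypsin, each at 11 concentrations in threefold dilutions together with a no-protease condition. The mini-proteins were under 80 residues, had no cysteine, sat in a PA-tagged cDNA display construct, and were kept only if AlphaFold2 dimer inter-PAE was above 15. From the counts, Bayesian fitting gave K50, and unfolding free energy was derived against a sequence-predicted unfolded-state K50 and a shared folded-state K50, per protease or combined.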

[2] = folding stability dG unfold (combined trypsin and chymotrypsin); higher = more stable
Outline: as §1

[3] = folding stability dG unfold from trypsin proteolysis; higher = more stable
Outline: as §1

Sequence	folding stability dG unfold [1] [kcal/mol]	folding stability dG unfold [2] [kcal/mol]	folding stability dG unfold [3] [kcal/mol]
SAGGSDTLKKLFPGVKEIEIEVEPYWVPMPPEMAKDNPEAPGQTFPVPRVKITIKIELPRDPDGKLSAGGSA [r2_404_TrROS]	0.324 ± 0.18	0.772 ± 0.12	1.09 ± 0.065
SAGGSEEERKRILEELKKKNPEKDVEVKVERKTYKVPAGTVVTLPDGTKIVAPADTTVEIYKVEIIKSAGGS [r16_357_JUSTAS]	2.14 ± 0.037	1.95 ± 0.2	1.32 ± 0.068
SAGGSEFEIIEVKDGTVVIRNKKTNELITVKVKIEVKPPPPVVVKKPGEEVTVKEGKKVTVLKEGEKKSAGG [r13_322_TrROS_Hall]	0.916 ± 0.13	0.498 ± 0.18	-0.188 ± 0.18
SAGGSEFPLRITDIHILGGYIVITFQVPPGLDKLEIKIKIELGGKPIEVTMEYTPGNGYMTMIIRLSAGGSA [r2_261_TrROS]	5.52 ± 0.14	5.57 ± 0.31	4.46 ± 0.21
SAGGSEITEEEAEKLKELFPNADITVEKVKPGETKTFPNGFRIEKTEDGYRVTVTLPNGEKLEFPVSAGGSA [r2_166_TrROS_Hall]	1.37 ± 0.053	1.33 ± 0.11	1.1 ± 0.043
SAGGSELKPGDLVVRIEIKVEVEEVRVNENGEVEVKLRVEIRIEVRPLPPPPEPSEEELLNPDGEESAGGSA [r2_495_TrROS_Hall]	1.89 ± 0.12	2.33 ± 0.27	2.74 ± 0.27
SAGGSELTLTVKVTVTVEVNGKTFTVEATLTLRFRPAPPPPKVRLERDADGNLRVTDANGKTRELRFSAGGS [r16_136_TrROS_Hall]	2.8 ± 0.1	2.61 ± 0.23	2.42 ± 0.17
SAGGSEVTLKVKVRRKVFKDGKLVAEEEVEKEVRVKLPPPPKIELSPELRKALEENDLEKIKKALESAGGSA [r2_196_TrROS_Hall]	1.74 ± 0.053	1.62 ± 0.11	1.43 ± 0.066
SAGGSEWQPIYEFDLPGKKIKVYMPPDGNYRIEVEKKGKPVNFWVPPNMSPSSIDNMLDQAKEQLNSAGGSA [r2_243_TrROS]	0.339 ± 0.16	0.343 ± 0.26	-0.0661 ± 0.25
SAGGSFKIHWFDDPEAAEEAAKDMDPGKIIILPDPKNPKYYIVIVVKDKIFRYEIDNGNIKIEPIPSAGGSA [r2_280_TrROS]	2.3 ± 0.029	2.11 ± 0.08	1.86 ± 0.072
SAGGSFTSEPNPNAPPDQPETITDPSKGVTTEVYFDTEKGTVSTTTTTTGDGTPTTSTSTTAIDPAAASAGG [r13_851_JUSTAS]	1.37 ± 0.085	1.34 ± 0.18	1.33 ± 0.15
SAGGSGATYLSKYEIPLPNGKKLTIIEAYKNPETDLILYIAKTDDGTEYPFVYPSSWSPEDAIKALISSAGG [r13_470_TrMRF]	2.91 ± 0.034	2.69 ± 0.086	2.25 ± 0.082
SAGGSGKIKEAVEAAIENPGKTVEVTVERPDGYPVKIKVDPKTGKITLEVIHPDGTTSRKEFEIKPSAGGSA [r2_263_TrMRF]	0.669 ± 0.046	0.83 ± 0.17	0.807 ± 0.071
SAGGSGMEAKLLEEALEAELKAKGYKVEVKVTVTKSFSVQEGGLPSSTTTVTIEITVRDPKTGKKVSAGGSA [r2_434_JUSTAS]	3.09 ± 0.1	2.56 ± 0.16	1.62 ± 0.09
SAGGSGPDVPLEEIARRIAEELGVPILSVDFERDPEAPVVTIRVTFRSPAPGRLEERTVVLPRELLSAGGSA [r2_156_JUSTAS]	0.759 ± 0.083	0.883 ± 0.068	0.942 ± 0.035
SAGGSGPSAPRTLTLDLPELPPGVKITVTVDFPGGRTFTGGVTERTATVDLPVPDGLEVESVTVQLESAGGS [r16_179_JUSTAS]	0.00426 ± 0.16	0.0729 ± 0.085	0.00568 ± 0.1
SAGGSGTMKVEVSKDGGKLTVKSEFPSGGYGVSDDSGKLATLEYDPEKGTTTVTFPDGTVRTLTYPGSAGGS [r16_602_JUSTAS]	0.647 ± 0.089	0.501 ± 0.12	0.0159 ± 0.11
SAGGSGVPLKITKVEVVGDKVVLTFEVPESLGTLKLNLTFELGGKPVEVEAEFDPETKYAVVVVGGSAGGSA [r2_261_TrMRF]	2.52 ± 0.061	2.49 ± 0.092	2.37 ± 0.051
SAGGSHEYTHEYRIPGGYAIRIKTKWRFNPGNNNIQIEEPDIELVPLPPVPPPPVPPEDADKNGIPPDDSAG [r5_393_TrROS]	2.29 ± 0.12	1.74 ± 0.12	1.19 ± 0.019
SAGGSIEEIAETLRDLLAPPEYEVDVEVVEVEVDPINPRIKRVRLKATVYPPDGSSREIEFEIPFDELSAGG [r13_215_TrMRF]	1.77 ± 0.029	1.71 ± 0.062	1.68 ± 0.042
SAGGSIEEILKAIPDAEKYEIDREKGIAYVTKKNTLYIVTVPRTSLPSPNGVLEPVSPISIKELPLESAGGS [r16_65_JUSTAS]	0.538 ± 0.1	0.447 ± 0.089	0.128 ± 0.047

Sequence	folding stability dG unfold [1] [kcal/mol]	folding stability dG unfold [2] [kcal/mol]	folding stability dG unfold [3] [kcal/mol]
SAGGSIRELAKELAREFAEEHGIKEVEVKVEPYPNGWIKIEVSVEGPNGEPIGEWPIQIPIPPDQISAGGSA [r2_153_TrROS]	0.74 ± 0.018	0.561 ± 0.11	0.199 ± 0.071
SAGGSITLPPVELPNGEKVTVTIEITPVPGAPPEERYRVTVTRTNPKTGTTETTELEVTRKGSVVTLESAGG [r13_208_JUSTAS]	1.5 ± 0.022	1.88 ± 0.099	2.16 ± 0.059
SAGGSKAKIVEAEIVEFDPEKGKITIRIKANGKTFEIEFPPGVKKIKLKVKLENGEEKEIEITIKPSAGGSA [r2_132_TrROS_Hall]	3.01 ± 0.14	2.59 ± 0.16	1.85 ± 0.044
SAGGSKEYEVKIVKIKEVKVENGKVYIKLEVEVRDKKTGKLLPSAEELAKELKKKFPNLKIEVKKPSAGGSA [r2_27_TrROS_Hall]	2.4 ± 0.12	2.42 ± 0.24	2.24 ± 0.13
SAGGSKIEVKIEEENGTLTITVTVYDENGEQIAEITVTITLPAPKPPEKELVKAESPEEKEEALKQSAGGSA [r2_332_TrROS_Hall]	1.8 ± 0.12	1.65 ± 0.35	2.25 ± 0.12
SAGGSKIKELLDAIKKAIEEGKEEVTIEVTLPNGSKIKFYPDGTIEITNKNGEKKTIKIKADDIKPSAGGSA [r2_97_TrROS_Hall]	1.44 ± 0.1	1.99 ± 0.27	2.29 ± 0.23
SAGGSKIQISIWEDPENDYTWVTIWFPDDEELVDFFVEDIADLGVKKVETERFPDNGWRRITILIRSAGGSA [r2_358_TrROS]	3.27 ± 0.066	2.97 ± 0.12	2.43 ± 0.063
SAGGSKKEIEALKGKTVTFPKIRDPKTNELLEPVKVKIVEVKYDKDTKKIYIKVEVDGKIYTFEIDSAGGSA [r2_314_TrROS_Hall]	2.85 ± 0.062	2.5 ± 0.37	0.868 ± 0.19
SAGGSKKIVKEMKSKEVIDLAKKLKEKKDIIIVVKLNGKVKVLDLDKVKPIPDKNVKAIIEIKPKKKSAGGS [r16_628_TrMRF]	0.901 ± 0.094	0.745 ± 0.29	0.571 ± 0.22
SAGGSKKKEEVKEIDVVLVEVSEEEALKLAEETGKAVIVVFPDGELRIFYPDGTVETIKLPDLEELSAGGSA [r2_34_TrROS_Hall]	0.0647 ± 0.082	0.296 ± 0.21	0.377 ± 0.062
SAGGSKKPKKIIVIEIPENMTEEEIKKLAEELAKKLNIKKIVKIEKKKDGSVRIVLETKDGKKIEFSAGGSA [r2_168_TrROS_Hall]	2.84 ± 0.035	2.63 ± 0.16	2.3 ± 0.089
SAGGSKKTIELVIKDKKTNKWLKITIEYDEETGEVTVTIYDKNGEVVKEIKMSKDELKKLLEKLGFSAGGSA [r2_115_TrROS_Hall]	4.37 ± 0.16	4.28 ± 0.36	3.02 ± 0.22
SAGGSKKTYIVDSPEEIAKLIESIPEEEYVFAIKGRPDGKPVVEIYSKENIEEAIKENPEIIIPVGSAGGSA [r2_351_TrMRF]	0.641 ± 0.068	0.479 ± 0.11	0.287 ± 0.058
SAGGSKKVPIKVKIEVYNKNGEKMTLEELLKKLEENAKVEKDEKGRLTLYIVNKKTNKIVKIEVEKSAGGSA [r2_234_TrROS_Hall]	1.92 ± 0.19	1.72 ± 0.27	1.74 ± 0.18
SAGGSKLTVEEIKKLFPNVEVTKKEDGTYEMRVTVEVTLPNGEKKKVEVTVKVEVKDGKIVKVEVTSAGGSA [r2_104_TrROS_Hall]	3.17 ± 0.092	2.9 ± 0.12	2.44 ± 0.15
SAGGSKMEPGPVKIKVTDGGEEHTFDFQVSVMPDPDGRPMIMFSFPDGNPLSIPLDDAEKITDIEVSAGGSA [r2_297_TrROS]	-0.141 ± 0.29	0.106 ± 0.18	0.322 ± 0.11
SAGGSKPIRVEIAVPPDVPLEELARRVEEELRELGFEVEVEEVSFLPEEGRVLLRFRDGAVAVIPNSAGGSA [r2_242_TrMRF]	1.85 ± 0.062	1.86 ± 0.068	1.8 ± 0.022
SAGGSKPTVTLELYIEVPEEELSEEEIKKLLEELAKELNLEVEVTVEVEEKDGKLIVKVTVTIKKPSAGGSA [r2_172_TrROS_Hall]	2.28 ± 0.14	2.25 ± 0.25	2.15 ± 0.19
SAGGSKPVYKVKIEIEFNGKKIEIEIEAETEEEAKKAVEELLKKLFEENKDNLKIKVEVEKLPEKPSAGGSA [r2_111_TrROS_Hall]	3.15 ± 0.2	3.11 ± 0.12	2.95 ± 0.15
SAGGSKSKIISASVFTTPDGEKVGVIKVLVKDPNGNPHLVIATIYSDGKIKVSVYYNGKVYTFEFDSAGGSA [r2_182_TrMRF]	3.95 ± 0.037	3.52 ± 0.12	2.41 ± 0.079

From the supplement of paper PMC12764529
